This note sets out measurements from patent publication US20050281829A1, “Fc chimeric proteins with anti-HIV drugs” (priority 2003, published 2005).

For data set [1] the following is noted: monkeys, single intravenous bolus; FIG. 8A/8B. Here is the method:
The animals were sedated with ketamine (≈10 mg/kg) prior to dosing. The hair from the dosing area were clipped, cleansed with alcohol, and air-dried prior to delivering the dose. This was followed by a 3 mL saline flush. Samples were obtained from the femoral vein at indicated times. The blood was allowed to clot and the serum was separated and frozen until analysis.

Data set [2] addresses human serum albumin (Homo sapiens, UniProt P02768). The note with it: SPR, FIG. 11.
Description: A BIACORE 3000 instrument (Biacore AB Uppsala, Sweden) was used and all binding interactions were performed at 25° C. A carboxymethyl-modified dextran (CM5) sensor chip (Biacore. AB Uppsala, Sweden) was used for analysis. HAS (Albuminar) (Aventis Bridgewater, N.J.) was diluted to 100 μg/mL in 10 mM sodium acetate (pH 4.5) and immobilized to one flowcell of the sensor chip, using amine coupling as described. […] Final immobilization level was approximately 8500 Resonance Units (RU). A “mock-immobilized” surface using a separate flowcell was created using the same procedure in the absence of HSA and served as a reference for the binding studies.
Proteins or peptides (analyte) were diluted in HBS-N buffer (10 mM HEPES, pH 7.4; 150 mM NaCl) and injected over the HSA and reference surfaces for 3 minutes at a rate of 20 μL/min. After a 35 second dissociation phase, the surface was regenerated by a 30 second pulse of 10 mM glycine (pH 2.0) at a flow rate of 60 μL/min.
The sensorgrams (Response Units versus time) generated for the mock-coated flowcell were automatically subtracted from the HSA-coated sensorgrams. Response at equilibrium (Req) was measured 30 seconds before the end of the injection phase and divided by the molecular weight of the analyte (Frostell-Karlsson et al. 2000, J. Med. Chem. 43:1986).
The conditions of data set [3]: neonatal rats, oral (gavage); FIG. 9. The source says:
The blood was allowed to clot and the serum was separated and frozen until analysis.

Where two headings read alike, the source gives them in different places.

As for “Fc-T20: Recombinant chimeric protein: human Fc linked via a glycine peptide linker to T20 at the Fc C terminus (SEQ ID NO:4)”, the values for the serum half life entry in data set [1] and in data set [3] were “greater than 40 hours” and 23 h, respectively. In addition, the “binding to human serum albumin (in words)” value in data set [2] was “reduced binding”.

Consider enfuvirtide, for which the “binding to human serum albumin relative to binding of either FcT20 or T20Fc” value in data set [2] (25° C., Req divided by molecular weight) is on record as “more than 3 fold”.
